Substrate in series [1]: OC[C@@H](O)[C@@H](O)[C@H](O)[C@H](O)CO
Briefly: cells, lysate or membranes. The format is cell-based, Saccharomyces cerevisiae. Particulars: labelled compound, EBY.VW4000 co-expressing YNR073C, 30 °C.

Substrate in series [2]: OC[C@@H](O)[C@@H](O)[C@H](O)[C@@H](O)CO
Kind of series: cells, lysate or membranes. The format is cell-based, Saccharomyces cerevisiae. Particulars: labelled compound, EBY.VW4000 co-expressing SOR1, 30 °C, facilitated transport.

Substrate in series [3]: OC[C@@H](O)[C@@H](O)[C@H](O)[C@H](O)CO
Briefly: NAD+ reduction, crude extract of overexpressing yeast. The format is biochemical, Saccharomyces cerevisiae. Particulars: 1.66 mM NAD+, 60 mM HEPES-NaOH pH 7.4. The text has this: (§1) NAD+ reduction, crude extract of overexpressing yeast on Sor1

Substrate in series [4]: OC[C@@H](O)[C@@H](O)[C@H](O)[C@@H](O)CO
The series is described as above. The format is biochemical, Saccharomyces cerevisiae. Particulars: 1.66 mM NAD+, 60 mM HEPES-NaOH pH 7.4.
From the text: as §1

Substrate in series [5]: OC[C@@H](O)[C@@H](O)[C@H](O)[C@H](O)CO
Described as above. The format is biochemical, Saccharomyces cerevisiae. As to conditions: 1.66 mM NAD+, 60 mM HEPES-NaOH pH 7.4. From the text:
(§2) NAD+ reduction, crude extract of overexpressing yeast on Sor2
The source holds these as a separate data set.

Substrate in series [6]: OC[C@@H](O)[C@@H](O)[C@H](O)[C@@H](O)CO
Described as above. The format is biochemical, Saccharomyces cerevisiae. Particulars: 1.66 mM NAD+, 60 mM HEPES-NaOH pH 7.4.
From the text: as §2
This is another data set of the same source.

Substrate in series [7]: OC[C@@H](O)[C@@H](O)[C@H](O)[C@H](O)CO
The description is as above. The format is biochemical, Saccharomyces cerevisiae. As to conditions: 1.66 mM NAD+, 60 mM HEPES-NaOH pH 7.4. The text has this: NAD+ reduction, crude extract of overexpressing yeast on YNR073C
This is another data set of the same source.

Substrate in series [8]: OC[C@@H](O)[C@@H](O)[C@H](O)[C@H](O)CO
The description is as above. The format is biochemical, Saccharomyces cerevisiae. Particulars: 1.66 mM NAD+, 60 mM HEPES-NaOH pH 7.4. The text has this: NAD+ reduction, crude extract of overexpressing yeast on Dsf1
The source holds these as a separate data set.

The record followed here is publication PMC4800717, “Hxt13, Hxt15, Hxt16 and Hxt17 from Saccharomyces cerevisiae represent a novel type of polyol transporters” (Scientific Reports, 2016).

Positions count from the first letter of the chain named. Numbers in names are those of the source.

B1: Hxt17 (Saccharomyces cerevisiae S288C) (protein)
chain: MQSSTESDRDIQDGPDADIHVAPPVEKEWSDGFDDNEVINGDNVEPPKRGLIGYLVIYLLCYPISFGGFLPGWDSGITAGFINMDNFKMNFGSYKHSTGEYYLSNVRMGLLVAMFSIGCAIGGLIFARLADTLGRRLAIVIVVLVYMVGAIIQISSNHKWYQYFVGKIIYGLGAGGCSVLCPMLLSEIAPTDLRGGLVSLYQLNMTFGIFLGYCSVYGTRKYDNTAQWRVPLGLCFLWTLIIIIGMLLVPESPRYLIECERHEEARASIAKINKVSPEDPWVLKQADEINAGVLAQRELGEASWKELFSVKTKVLQRLITGILVQTFLQLTGENYFFFYGTTIFKSVGLTDGFETSIVLGTVNFFSTIIAVMVVDKIGRRKCLLFGAAGMMACMVIFASIGVKCLYPHGQDGPSSKGAGNAMIVFTCFYIFCFATTWAPVAYIVVAESFPSKVKSRAMSISTACNWLWQFLIGFFTPFITGSIHFYYGYVFVGCLVAMFLYVFFFLPETIGLSLEEIQLLYEEGIKPWKSASWVPPSRRGIPSEESKTEKKDWKKFLKFSKGSD
notes: full-length ORF, p426H7 plasmid, expressed in hxt0 yeast EBY.VW4000 with YNR073C or SOR1
For orientation: Km means the substrate concentration at which the rate is half of its maximum. For B1, the Km in series [1] was found to be 18.6 ± 4.3 mM.

B2: Hxt13 (Saccharomyces cerevisiae S288C) (protein)
chain: MSSAQSSIDSDGDVRDADIHVAPPVEKEWSDGFDDNEVINGDNVEPPKRGLIGYLVIYLLCYPISFGGFLPGWDSGITAGFINMDNFKMNFGSYKHSTGEYYLSNVRMGLLVAMFSIGCAIGGLIFARLADTLGRRLAIVIVVLVYMVGAIIQISSNHKWYQYFVGKIIYGLGAGGCSVLCPMLLSEIAPTDLRGGLVSLYQLNMTFGIFLGYCSVYGTRKYDNTAQWRVPLGLCFLWALIIIIGMLLVPESPRYLIECERHEEARASIAKINKVSPEDPWVLKQADEINAGVLAQRELGEASWKELFSVKTKVLQRLITGILVQTFLQLTGENYFFFYGTTIFKSVGLTDGFETSIVLGTVNFFSTIIAVMVVDKIGRRKCLLFGAAGMMACMVIFASIGVKCLYPHGQDGPSSKGAGNAMIVFTCFYIFCFATTWAPVAYIVVAESFPSKVKSRAMSISTACNWLWQFLIGFFTPFITGSIHFYYGYVFVGCLVAMFLYVFFFLPETIGLSLEEIQLLYEEGIKPWKSASWVPPSRRGISSEESKTEKKDWKKFLKFSKNSD
notes: as for B1
As to B2, the Km in series [1] (facilitated transport) worked out at 16.7 ± 2.9 mM; in series [2], 20.4 ± 2.4 mM.

B3: Hxt15 (Saccharomyces cerevisiae S288C) (protein)
chain: MASEQSSPEINADNLNSSAADVHVQPPGEKEWSDGFYDKEVINGNTPDAPKRGFLGYLIIYLLCYPVSFGGFLPGWDSGITAGFINMDNFKMNFGSYKHSTGEYYLSNVRMGLLVAMFSVGCSIGGVAFARLADTLGRRLAIVIVVLVYMVGAIIQISSNHKWYQYFVGKIIYGLGAGGCSVLCPMLLSEIAPTDLRGGLVSLYQLNMTFGIFLGYCSVYGTRKYSNTAQWRIPVGLCFLWALIIIVGMLLVPESPRYLIECERHEEACVSIAKINKVSPEDPWVLKQADEINAGVLAQRELGEASWKELFSVKTKVLQRLITGILVQTFLQLTGENYFFFYGTTIFKSVGLTDGFETSIVLGTVNFFSTIIAVMVVDKIGRRKCLLFGAASMMACMVIFASIGVKCLYPHGQDGPSSKGAGNAMIVFTCFYIFCFATTWAPVAYIVVAESFPSKVKSKAMSISTAFNWLWQFLIGFFTPFITGSIHFYYGYVFVGCLVAMFLYVFFFLPETIGLSLEEIQLLYEEGIKPWKSASWVPPSRRGASSRETEAKKKSWKEVLKFPKSFN
notes: full-length ORF, p426H7 plasmid, expressed in hxt0 yeast EBY.VW4000 or AFY10 with a polyol dehydrogenase
For B3, the Km in series [1] (facilitated transport) is 11.4 ± 2.7 mM; in series [2], 38.9 ± 8.6 mM.

B4: Sor1 (Saccharomyces cerevisiae S288C) (protein)
chain: MSQNSNPAVVLEKVGDIAIEQRPIPTIKDPHYVKLAIKATGICGSDIHYYRSGGIGKYILKAPMVLGHESSGQVVEVGDAVTRVKVGDRVAIEPGVPSRYSDETKEGRYNLCPHMAFAATPPIDGTLVKYYLSPEDFLVKLPEGVSYEEGACVEPLSVGVHSNKLAGVRFGTKVVVFGAGPVGLLTGAVARAFGATDVIFVDVFDNKLQRAKDFGATNTFNSSQFSTDKAQDLADGVQKLLGGNHADVVFECSGADVCIDAAVKTTKVGGTMVQVGMGKNYTNFPIAEVSGKEMKLIGCFRYSFGDYRDAVNLVATGKVNVKPLITHKFKFEDAAKAYDYNIAHGGEVVKTIIFGPE
notes: full-length ORF, p425H7 multicopy plasmid, overexpressed in yeast CEN.PK2-1C; crude extract
In the case of B4, in series [3], the Michaelis-Menten constant (Km) came out at 89.0 ± 37.5 mM and the Vmax is 0.10 ± 0.02 umol substrate converted per minute per. In addition, in series [4], the Km was determined as 11.8 ± 1.4 mM and the Vmax is listed as 0.40 ± 0.01 umol substrate converted per minute per.

B5: Sor2 (Saccharomyces cerevisiae S288C) (protein)
chain: B4 chain with R108S
notes: as for B4
With B5, in series [5], the Km stood at 98.4 ± 25.7 mM and the Vmax is on record as 0.05 ± 0.01 umol substrate converted per minute per. In series [6], the Km was found to be 15.1 ± 2.8 mM and the Vmax is on record as 0.5 ± 0.02 umol substrate converted per minute per.

B6: YNR073C (Saccharomyces cerevisiae S288C) (protein)
chain: MTKSDETTATSLNAKTLKSFESTLPIPTYPREGVKQGIVHLGVGAFHRSHLAVFMHRLMQEHHLKDWSICGVGLMKADALMRDAMKAQDCLYTLVERGIKDTNAYIVGSITAYMYAPDDPRAVIEKMANPDTHIVSLTVTENGYYHSEATNSLMTDAPEIINDLNHPEKPDTLYGYLYEALLLRYKRGLTPFTIMSCDNMPQNGVTVKTMLVAFAKLKKDEKFAAWIEDKVTSPNSMVDRVTPRCTDKERKYVADTWGIKDQCPVVAEPFIQWVLEDNFSDGRPPWELVGVQVVKDVDSYELMKLRLLNGGHSAMGYLGYLAGYTYIHEVVNDPTINKYIRVLMREEVIPLLPKVPGVDFEEYTASVLERFSNPAIQDTVARICLMGSGKMPKYVLPSIYEQLRKPDGKYKLLAVCVAGWFRYLTGVDMNGKPFEIEDPMAPTLKAAAVKGGKDPHELLNIEVLFSPEIRDNKEFVAQLTHSLETVYDKGPIAAIKEILDQV
notes: as for B4
B6: in series [7], the Km is 3.6 ± 0.5 mM and the Vmax is on record as 0.40 ± 0.02 umol substrate converted per minute per.

B7: Dsf1 (Saccharomyces cerevisiae S288C) (protein)
chain: B6 chain
notes: as for B4
Consider B7, for which, in series [8], the Km was 2.9 ± 0.3 mM and the Vmax is 0.90 ± 0.02 umol substrate converted per minute per.
